From the supplement of paper PMC9170038

These sequences were tested on MS2 coat protein (assay: apparent KD of MS2 coat protein; higher = weaker reporter binding). Settings: Eterna round: R107; input ligand: theophylline 2 mM.
Description: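 RNA-MaP round R107: designed RNA switches with theophylline, tryptophan, arginine or FMN aptamers are transcribed on-chip within common flanks. They are titrated with SNAP-549-labelled MS2 coat protein in RNA-MaP buffer (100 mM Tris pH 7.5, 80 mM KCl, 4 mM MgCl2), without ligand or with the indicated ligand. Median apparent KD per design.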

| Sequence | apparent KD of MS2 coat protein [nM] |
| --- | --- |
| UUCAGCUAGUCGGCCGCCACUAUCUGAGGAUCACCCAGGUAAUCCUAACACUGCUUCGGCAGUGGUAGGACCGGGACUAGCUGAG | 20 |
| ACAUUUAACUGAAGGAGCGUGAAUAACAUGAGGAUCACCCAUGUAACUUAGAUGCUUAUUUCACAGGUAGGUCGCAGACUAAUGA [JR_ExcArginiB_Sub010] | 10.3 |
| AGAUUCGACACGGCCGCCACUCGUGGAGGAUUUCCGAGUGUCGAACAUGAGGAUCACCCAUGUACGAGGACCGGGUGUUGAGUCU [XTryp B #14] | 32.2 |
| GCUAGGUCUACGGCCGCCACUAGACGUGGGUAAGACAUGAGGAUCACCCAUGUACUACGGGCGCUUAGGACCGGGUAGACCUAGC [SSTB NP+V+V2 #17 +-Same Structure] | 285 |
| UGAGAGGGCAGAAGGAGCGACAUGAGGAUCACCCAUGUCUCCCGUUAUGGGAGUUCUUUAGGUCAGGUAGGUCGCUGGCCUCUCA [#1 Exclusion - Arginine B Attempt #9 (Inspired by Omei)] | 146 |
| ACAUGAGGAUCACCCAUGUCAGGGCACGAUACCAGCUGAUCCGGUGGCCCUUGGCAGCGUGACGUGUGGUCAUGAGGAUCACCCG [wsmullin] | 638 |
| GCAUCCUAGUCGGCCGCCACUGCAUGUUGGCAGUGCUGCAACAUACAUGAGGAUCACCCAUGUUGCAGGACCGGGACUAGGAUGC [(Trp1)-(MT2)''-(T1)'-(MT2)'-(Ms2)-(Trp2)_Design1] | 25.2 |

Same assay, conditions: Eterna round: R107; input ligand: tryptophan 2.4 mM

| Sequence | apparent KD of MS2 coat protein [nM] |
| --- | --- |
| AAAAGUAGGUCCAAUAAAACUACAUGUGAAGGAGCGCGCGAAAGCGCAGGUAGGUCGCACAUGAGGAUCACCCAUGUCCUACAAA [MAT - Exclusion Arginine A - Mod of Eli - D6] | 39.8 |
| UUUGAUAGGACAGAUACCAGCGUGUUAUAGAACAUGAGGAUCACCCAUGUAGUGAUCAAGCGCCCUUGGCAGCUGGUUUGUUAGG [7.K] | 196 |
| UUAUUUAACGGAAGGAGCGCGGAAAUAAAAGUGGGUAAACAUGAGGAUCACCCAUGUAAACCGCAGGUAGGUCGCCGAUAUUUAU [AstrosEXyARgB#2] | 59.4 |
| CAUGUUAGGGCGGCCGCCACUGUGGCUACGGUACAUGAGGAUCACCCAUGUUUGUGGUUGAUCUACAGGACCGGGCCCUGACACG [Erarusge] | 209 |
| CGAAUAUAGGCUACGUGUCAUUGAGGCGAUACCAGAUUAUGCCAGAUCCCUUGGCAGCGCCAAACAUGAGGAUCACCCAUGUUCA [theeternabot_exclusion_MS2_Theo_A_38] | 21.5 |
| ACAUGAGGAUCACCCAUGUAAAUAACGGAAGGAGCGUGCAAAAGCACAGGUAGGUCGCCGAUAUAAAUAUUGGGUAAUAUAUUAU [ExyArgA#1] | 28 |
| GGUGGCGGGACUGAUACCAGCCACCACCGAUAGACCACAUGAGGAUCACCCAUGUUGGGUGGCCCUUGGCAGCAGUCUUGCUGCU [#1 Same State - Theophylline B Attempt #13 (HarryS)] | 586 |
| GUAAUAUACAGAAGGAGCGUGAUAGUGAGCUUGUACAACAUGAGGAUCACCCAUGUAUAAUCACAGGUAGGUCGCUGUAUAGGGU [Arg B SS t2] | 17.8 |
| AUACCGAGUGAGUCGUGUUUCUUUUCAGAUACCAGACUUUUCGUUGUCCCUUGGCAGCUGUUUUACAUGAGGAUCACCCAUGUUG [#28 Exclusion-TheophyllineA] | 15.2 |
| GGCACUCUGUAAGAUACCAGACGUCGGUGCUUACAUGAGGAUCACCCAUGUUGCUUUUUAGUCCCUUGGCAGCUUCGGAUAACCA [Oniste] | 230 |
| GAUGAACAUACUGAUACCAGUGUACUGACAUGAGGAUCACCCAUGUUGGGUUUUGUUGUACACCCUUGGCAGCAGAAUGUUUAUC [AstrosExyTheB#7] | 55.4 |
| UAAAAUAAUAAUGAUACCAGCCCUCCCUCCCGGGACAUGAGGAUCACCCAUGUCUCUCCCGGCCCUUGGCAGCAUAAAUAAUAAU [Same Stare - Theophylline B] | 12.1 |
| GGUCGCCAACAUGGGUCGGUGAAAUGGGAAGGAGCGAGCGAGAGCUCAGGUAGGUCGCCCAAACAUGAGGAUCACCCAUGUAAUA [SSArg-A #28 UUU adds V2] | 53.4 |
| UCACGACGGAUGGAUACCAGCGACAUGAGGAUCACCCAUGUAUGAGGAUCAGCCAUGUUAUGCCCUUGGCAGCCACGAAGGUCAU [YYYMULLIN] | 18.2 |
| AUAUUAAUCGGAAGGAGCGGUACAUGAGGAUCACCCAUGUGCGAAGCCAGCAGAUCCCGUUACCAGGUAGGUCGCCGAGUUAUGA [Begebe] | 30.7 |
| GAUGCACAUGAGGAUCACCCAUGUCCUGAUACCAGAACGCGACUUUUCCCUUGGCAGCAGAAUUCACUUUUUUACAUUCAUACUG [theeternabot_sameState_MS2_Theo_A_11] | 27 |
| AUCCAUAGCCGAAGGAGCGCAGUAGGAUGACAUGAGGAUCACCCAUGUGUGUGAUGUGGAUUGCAGGUAGGUCGCGGAGUGGGUU [Exclusion - Arginine B (Freestyle 7)] | 79.7 |
| GAGCUGAUGUAGAGAUUUUAUUUCUGAGAUACCAGUACAGAAAUGUACCCUUGGCAGCUCAGCUUUACAUGAGGAUCACCCAUGU [Ex Theophylline A 16] | 17.6 |
| GAUCUGUCGGGUGAUACCAGCCUCGGCACAUCUCGUGCCGAACAUGAGGAUCACCCAUGUGGCCCUUGGCAGCACAUGACAAAUC [Regebece] | 1050 |
| UUAUAUAUGCGAAGGAGCGGGAAAUAUAUAUAUAUAAUCCUAACAUGAGGAUCACCCAUGUCCCAGGUAGGUCGCGCAUAUAUGG [12.E] | 75.7 |
| GGUUGGUGUGGAGACAUAUUGAUUACUGAAGGAGCGGGAAUAAACCCAGGUAGGUCGCAGAGAUCCACAUGAGGAUCACCCAUGU [!0.P] | 22.4 |
| UAUUUGGUGCGCGAGUGUUGGAUAAUUGAUACCAGUGAAGAAGAGCGCCCUUGGCAGCGAAUCCUAACAUGAGGAUCACCCAUGU [5.T] | 35.4 |
| UUCAGCUAGUCGGCCGCCACUAUCUGAGGAUCACCCAGGUAAUCCUAACACUGCUUCGGCAGUGGUAGGACCGGGACUAGCUGAG | 10.6 |
| ACAUUUAACUGAAGGAGCGUGAAUAACAUGAGGAUCACCCAUGUAACUUAGAUGCUUAUUUCACAGGUAGGUCGCAGACUAAUGA [JR_ExcArginiB_Sub010] | 10.9 |
| ACGACGCAUAGUGAUACCAGCACAACAUGAGGAUCACCCAUGUCACAUAUGUUGUAAUAAUGCCCUUGGCAGCACUAUGCGUCAG [SSTheo B #2] | 50.8 |
| UGAGAGGGCAGAAGGAGCGACAUGAGGAUCACCCAUGUCUCCCGUUAUGGGAGUUCUUUAGGUCAGGUAGGUCGCUGGCCUCUCA [#1 Exclusion - Arginine B Attempt #9 (Inspired by Omei)] | 99.5 |
| ACAUGAGGAUCACCCAUGUCAGGGCACGAUACCAGCUGAUCCGGUGGCCCUUGGCAGCGUGACGUGUGGUCAUGAGGAUCACCCG [wsmullin] | 464 |
| ACAUGAGGAUCACCCAUGUUCCUCGCCGAUACCAGUGAAGAAGAACGCCCUUGGCAGCGGAAAGAGUAUUUUGGAGAUGAGGUAC [6.X] | 124 |
| UGACAUUGCUCAGAUACCAGACAUGAGGAUCACCCAUGUGCCAAAUACGUACAAAUAAAUGUCCCUUGGCAGCUGAGCAAUGUCU [TheoBX 12 #MS2Left #Theo2] | 14.4 |
| GCAUCCUAGUCGGCCGCCACUGCAUGUUGGCAGUGCUGCAACAUACAUGAGGAUCACCCAUGUUGCAGGACCGGGACUAGGAUGC [(Trp1)-(MT2)''-(T1)'-(MT2)'-(Ms2)-(Trp2)_Design1] | 22.8 |
